Measurements reported in the supplement of paper PMC9233669.
This sample holds only a part of the variants without activity.

Tests used:
[1] = system: biotinyl-Met-oxazolone; assay: self-aminoacylation, catalytic enhancement (BMO) (fold over background); higher = more active; k-Seq, kA / k0A0; sequences stand for … in GGGAAUGGAUCCACAUCUACGAAUUC…UUCACUGCAGACUUGACGAAGCUG
Outline: (§1)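 Mutagenized RNA pools with a 21-nt variable region (0.43 μM) reacted with each biotinyl-aminoacyl-oxazolone at 2–1250 μM. Reactions ran in 50 μL HEPES/NaCl/KCl/MgCl2/CaCl2 buffer with 5% acetonitrile, pH 6.9–7.0, for 90 minutes at room temperature. Streptavidin-captured RNA was quantified by triplicate qPCR and Illumina sequencing, and per-sequence fraction reacted was fit to a pseudo-first-order model with 1000 bootstraps. Catalytic enhancement is median kA divided by the uncatalyzed rate, the low-activity peak of a bimodal Gaussian fit.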

[2] = system: biotinyl-Phe-oxazolone; assay: self-aminoacylation, catalytic enhancement (BFO) (fold over background); higher = more active; k-Seq, kA / k0A0; sequences stand for … in GGGAAUGGAUCCACAUCUACGAAUUC…UUCACUGCAGACUUGACGAAGCUG
Outline: as §1

[3] = system: biotinyl-Trp-oxazolone; assay: self-aminoacylation, catalytic enhancement (BWO) (fold over background); higher = more active; k-Seq, kA / k0A0; sequences stand for … in GGGAAUGGAUCCACAUCUACGAAUUC…UUCACUGCAGACUUGACGAAGCUG
Outline: as §1

[4] = system: biotinyl-Leu-oxazolone; assay: self-aminoacylation, catalytic enhancement (BLO) (fold over background); higher = more active; k-Seq, kA / k0A0; sequences stand for … in GGGAAUGGAUCCACAUCUACGAAUUC…UUCACUGCAGACUUGACGAAGCUG
Outline: as §1

[5] = system: biotinyl-Ile-oxazolone; assay: self-aminoacylation, catalytic enhancement (BIO) (fold over background); higher = more active; k-Seq, kA / k0A0; sequences stand for … in GGGAAUGGAUCCACAUCUACGAAUUC…UUCACUGCAGACUUGACGAAGCUG
Outline: as §1

[6] = system: biotinyl-Val-oxazolone; assay: self-aminoacylation, catalytic enhancement (BVO) (fold over background); higher = more active; k-Seq, kA / k0A0; sequences stand for … in GGGAAUGGAUCCACAUCUACGAAUUC…UUCACUGCAGACUUGACGAAGCUG
Outline: as §1

| Sequence | self-aminoacylation [1] | self-aminoacylation [2] | self-aminoacylation [3] | self-aminoacylation [4] | self-aminoacylation [5] | self-aminoacylation [6] |
| --- | --- | --- | --- | --- | --- | --- |
| CCUCACUUCAAGCAAUCGGUA [Fam1B.1 aminoacylation ribozyme variant] | 1.51 | 1.91 | 1.57 | 1.22 | 1.05 | 1.11 |
| CCUCACUUCAAGCAAUCGGUG [Fam1B.1 aminoacylation ribozyme variant] | 6.58 | 25.3 | 6.88 | 9.05 | 4.12 | 4.01 |
| CCUCACUUCCAGCAAUCGGUC [Fam1B.1 aminoacylation ribozyme variant] | 0.651 | 1.23 | 0.965 | 0.861 | 1.05 | 1.06 |
| CCUCACUUUAAGCAAUCGGUC [Fam1B.1 aminoacylation ribozyme variant] | 0.544 | 1.2 | 0.683 | 0.619 | 0.734 | 0.688 |
| CCUCCCUUCAAGCAAUCGGUC [Fam1B.1 aminoacylation ribozyme variant] | 0.881 | 13.8 | 8.87 | 1.17 | 1.2 | 1.13 |
| CGACACUUCAAGCAAUCGGGC [Fam1B.1 aminoacylation ribozyme variant] | 1.36 | 8.3 | 2.12 | 1.85 | 1.91 | 2.43 |
| CGACACUUCAAGCAAUCGGUA [Fam1B.1 aminoacylation ribozyme variant] | 1.44 | 2.02 | 2.9 | 1.41 | 1.86 | 1.84 |
| CGACACUUCAAGCAUUCGGUC [Fam1B.1 aminoacylation ribozyme variant] | 1.64 | 3.31 | 1.51 | 1.55 | 1.8 | 1.99 |
| CGACACUUCCAGCAAUCGGUC [Fam1B.1 aminoacylation ribozyme variant] | 1.14 | 0.915 | 1.15 | 1.19 | 1.56 | 1.49 |
| CGACAUCAAACAAUCGGUCUG [Fam1A.1 aminoacylation ribozyme variant] | 1.05 | 3.7 | 2.71 | 0.934 | 1.11 | 1.19 |
| CGACUUAAAACAAUCGGUCUG [Fam1A.1 aminoacylation ribozyme variant] | 1.48 | 1.15 | 1.06 | 1.26 | 1.33 | 1.17 |
| CGACUUCAAACAAGCGGUCUG [Fam1A.1 aminoacylation ribozyme variant] | 1.6 | 1.23 | 1.45 | 1.11 | 1.39 | 1.37 |
| CGACUUCAAAGAAUCGGUCUG [Fam1A.1 aminoacylation ribozyme variant] | 1.32 | 9.34 | 7.38 | 1.66 | 1.31 | 1.3 |
| CUAAUUCAAACAAUCCGUCUG [Fam1A.1 aminoacylation ribozyme variant] | 0.635 | 0.937 | 0.609 | 0.578 | 0.682 | 0.764 |
| CUAAUUCAAACAAUCGCUCUG [Fam1A.1 aminoacylation ribozyme variant] | 0.668 | 0.713 | 0.67 | 0.527 | 0.628 | 0.653 |
| CUAAUUCAAACAAUCGGUCAG [Fam1A.1 aminoacylation ribozyme variant] | 0.583 | 1.46 | 0.765 | 0.566 | 0.602 | 0.546 |
| CUAAUUCAAACAAUCGGUCCG [Fam1A.1 aminoacylation ribozyme variant] | 0.575 | 0.604 | 0.513 | 0.732 | 0.553 | 0.539 |
| CUAAUUCAAACAAUCGGUCUA [Fam1A.1 aminoacylation ribozyme variant] | 0.549 | 1.65 | 0.635 | 0.497 | 0.612 | 0.593 |
| CUAAUUCAAACCAUCGGUCUG [Fam1A.1 aminoacylation ribozyme variant] | 0.817 | 0.795 | 0.589 | 0.949 | 0.967 | 0.848 |
| CUAAUUCAAACUAUCGGUCUG [Fam1A.1 aminoacylation ribozyme variant] | 1.09 | 1.1 | 0.685 | 0.938 | 0.978 | 0.936 |
| CUAAUUCAAAGAAUCGGUCUG [Fam1A.1 aminoacylation ribozyme variant] | 0.742 | 0.767 | 0.78 | 0.806 | 0.805 | 0.842 |
| CUAAUUCAUACAAUCGGUCUG [Fam1A.1 aminoacylation ribozyme variant] | 0.637 | 0.621 | 0.52 | 0.594 | 0.767 | 0.77 |
| CUAAUUCUAACAAUCGGUCUG [Fam1A.1 aminoacylation ribozyme variant] | 0.652 | 0.731 | 0.474 | 0.624 | 0.751 | 0.714 |
| CUAAUUGAAACAAUCGGUCUG [Fam1A.1 aminoacylation ribozyme variant] | 0.944 | 0.706 | 0.64 | 0.752 | 0.78 | 0.775 |
| CUACACUUCAAGCAAUCGGUA [Fam1B.1 aminoacylation ribozyme variant] | 0.709 | 1.37 | 0.846 | 0.755 | 0.739 | 0.65 |
| CUACACUUCAAGCAAUCGGUU [Fam1B.1 aminoacylation ribozyme variant] | 1.47 | 9.78 | 7.05 | 1.46 | 1.29 | 1.27 |

| Sequence | self-aminoacylation [1] | self-aminoacylation [2] | self-aminoacylation [3] | self-aminoacylation [4] | self-aminoacylation [5] | self-aminoacylation [6] |
| --- | --- | --- | --- | --- | --- | --- |
| CUACACUUCAGGCAAUCGGUC [Fam1B.1 aminoacylation ribozyme variant] | 1.01 | 1.49 | 0.839 | 0.97 | 1 | 1.01 |
| CUACACUUCCAGCAAUCGGUC [Fam1B.1 aminoacylation ribozyme variant] | 0.787 | 0.865 | 0.707 | 1.1 | 1.07 | 1.07 |
| CUACAUAAAACAAUCGGUCUG [Fam1A.1 aminoacylation ribozyme variant] | 0.934 | 0.674 | 0.539 | 0.738 | 0.808 | 0.799 |
| CUACAUCAAACAAUCCGUCUG [Fam1A.1 aminoacylation ribozyme variant] | 0.759 | 0.983 | 0.615 | 0.755 | 0.905 | 0.877 |
| CUACAUCAAACAAUCGGUCUA [Fam1A.1 aminoacylation ribozyme variant] | 0.802 | 1.61 | 0.755 | 0.58 | 0.669 | 0.922 |
| CUACAUCGAACAAUCGGUCUG [Fam1A.1 aminoacylation ribozyme variant] | 0.922 | 1.04 | 1.17 | 0.946 | 0.909 | 0.942 |
| CUACAUGAAACAAUCGGUCUG [Fam1A.1 aminoacylation ribozyme variant] | 0.868 | 0.716 | 0.772 | 0.721 | 0.828 | 0.803 |
| CUACCUCAAACAAACGGUCUG [Fam1A.1 aminoacylation ribozyme variant] | 0.85 | 1.33 | 0.615 | 1.08 | 0.919 | 1.03 |
| CUACCUCAAACAAUAGGUCUG [Fam1A.1 aminoacylation ribozyme variant] | 0.838 | 1.08 | 0.691 | 0.846 | 0.959 | 1 |
| CUACCUCAAACAAUCGGACUG [Fam1A.1 aminoacylation ribozyme variant] | 0.915 | 1.27 | 1.05 | 0.614 | 0.872 | 0.833 |
| CUACCUCAAACAAUCGGUCGG [Fam1A.1 aminoacylation ribozyme variant] | 1.5 | 1.56 | 1.78 | 1.55 | 1.28 | 1.25 |
| CUACCUCAAACAAUCGGUUUG [Fam1A.1 aminoacylation ribozyme variant] | 0.938 | 2.48 | 1.56 | 0.715 | 0.904 | 1.16 |
| CUACCUCAAACAAUCGUUCUG [Fam1A.1 aminoacylation ribozyme variant] | 0.525 | 0.62 | 0.863 | 0.588 | 0.711 | 0.672 |
| CUACCUCAACCAAUCGGUCUG [Fam1A.1 aminoacylation ribozyme variant] | 0.811 | 1.08 | 0.886 | 0.671 | 0.766 | 0.891 |
| CUACCUCUAACAAUCGGUCUG [Fam1A.1 aminoacylation ribozyme variant] | 0.915 | 0.97 | 0.565 | 0.919 | 0.8 | 0.739 |
| CUACGUCAAACAAUCGGUCAG [Fam1A.1 aminoacylation ribozyme variant] | 0.917 | 0.761 | 0.909 | 1.12 | 0.855 | 0.797 |
| CUACGUCAAACAAUCGUUCUG [Fam1A.1 aminoacylation ribozyme variant] | 0.854 | 0.508 | 0.856 | 0.822 | 0.789 | 0.813 |
| CUACGUCAAACAAUGGGUCUG [Fam1A.1 aminoacylation ribozyme variant] | 1.22 | 2.25 | 1.18 | 1.62 | 1.38 | 1.35 |
| CUACGUCAAACAGUCGGUCUG [Fam1A.1 aminoacylation ribozyme variant] | 1.25 | 3.92 | 1.14 | 1.75 | 1.14 | 1.52 |
| CUACGUCAUACAAUCGGUCUG [Fam1A.1 aminoacylation ribozyme variant] | 1.1 | 1.1 | 0.994 | 1.27 | 1.1 | 1.09 |
| CUACUACAAACAACCGGUCUG [Fam1A.1 aminoacylation ribozyme variant] | 0.601 | 1.12 | 0.954 | 0.845 | 1.19 | 1.14 |
| CUACUACAAACAAGCGGUCUG [Fam1A.1 aminoacylation ribozyme variant] | 1.1 | 0.606 | 0.883 | 1.25 | 1.11 | 1.2 |
| CUACUACAAACAAUAGGUCUG [Fam1A.1 aminoacylation ribozyme variant] | 0.635 | 0.827 | 0.456 | 0.718 | 0.826 | 0.94 |
| CUACUACAAACAAUCCGUCUG [Fam1A.1 aminoacylation ribozyme variant] | 0.728 | 0.545 | 0.855 | 0.68 | 0.717 | 0.832 |
| CUACUACAAACAAUCGGUCUC [Fam1A.1 aminoacylation ribozyme variant] | 0.53 | 1.05 | 0.673 | 0.418 | 0.647 | 0.59 |
